Data taken from patent US20050159354A1.

Tests used:
[1] = molecular target: neuronal receptor for agrin, on cultured mouse cortical neurons (mouse); assay: cell-based or functional assay
[2] = molecular target: neuronal receptor for agrin, on cultured mouse cortical neurons (mouse); assay: NIH Image analysis of immunofluorescence on cortical neurons; competitor C-Ag20z8 at 1:1 molar ratio (unpublished data)

Row | Substance | EC50 of c-fos induction in cortical neurons (in situ enzyme-linked immunoassay) [1] [nM] | rescue of glutamate-induced Fos expression in agrin-deficient neurons (5 nM, 2 d) [1] [fold] | other results
1 | C-Ag15, 15-kD COOH-terminal fragment of mouse agrin (ligand) | – | – | IC50 of inhibition of c-fos induction by 50 pM C-Ag95z8 in cortical neurons [1]: 64.5 pM; inhibition of rescue of the agrin-deficient glutamate response by 5 nM C-Ag95z0 (10 nM C-Ag15) [1]: 54%
2 | C-Ag20z8, 20-kD COOH-terminal fragment of mouse agrin, z8 splice variant (ligand) | 0.0112 | 2.2 | –
3 | C-Ag95z8, soluble 95-kD COOH terminus of mouse agrin, y4 z8 (from UniProt A2ASQ1 1144-1950) (ligand) | 0.0127 | – | –
4 | rC-Agy4z8, soluble 95-kD COOH-terminal fragment of rat agrin, y4z8 isoform (from UniProt P25304 1153-1951) (ligand) | – | – | reduction of labeling (mean pixel intensity) [2]: 30%

Continued, in another order:

Row | EC50 of c-fos induction in cortical neurons (in situ enzyme-linked immunoassay) [1] [nM] | rescue of glutamate-induced Fos expression in agrin-deficient neurons (5 nM, 2 d) [1] [fold] | Substance | other results
5 | 0.0133 | 2.2 | C-Ag20z0, 20-kD COOH-terminal fragment of mouse agrin, z0 splice variant (ligand) | –
6 | 0.0119 | – | C-Ag95z0, soluble 95-kD COOH terminus of mouse agrin, y4 z0 (from UniProt A2ASQ1 1144-1950) (ligand) | –
